Holding throughout (test): filter
Data set [1] deals with T1, TGFβ2 (transforming growth factor beta 2) (Homo sapiens, UniProt P61812 SEQ:1-112).
T1 sequence: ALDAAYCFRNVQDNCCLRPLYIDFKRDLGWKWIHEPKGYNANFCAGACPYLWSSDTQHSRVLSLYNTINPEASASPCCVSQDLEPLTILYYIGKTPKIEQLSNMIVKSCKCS
As to conditions: chain copies: 2 (inferred, homodimer).

In data set [2] the target is T1, TGFβ2 (transforming growth factor beta …). As to conditions: chain copies: 2 (inferred, homodimer). This is another data set of the same source.
Data set [3] has the same target. As to conditions: chain copies: 2 (homodimer, stated).

Residue numbers refer to the chain shown, from its start.

GGAGGUUAUUACAGAGUCUGUAUAGCUGUACUCCCCA (ssRNA, 2'-F C and U) [NX22285]: in data set [1], the binding signal was 2 x Kd of NX22284.

B1: biased clone 17 (ssRNA)
RNA: GGGAGGACGAUGCGGGGGGACUAUUAGUGAGUCUGUAUAGCACUACCCCCAGACGACUCGCCCGA
modifications: 2'-F C and U
B1: in data set [2], the binding signal is 0.8 x Kd of 21a-21.

As to GGUUAUUACAGAGUCUGUAUAGCUGUACUCC (ssRNA, 2'-F C and U; 3'-3' dT cap) [NX22303], the binding signal in data set [1] is > 100 x Kd of NX22284. Same read-out and setting: to GGAGGUUAUUACAGAGUCUGUAUAGCUGUACUCC (ssRNA, 2'-F C and U) [21a-21(ML-95)] belongs 1 x Kd of NX22284; to GGAGGUUAUUACAGAGUCUGUAUAGCUGUACUCCCC (ssRNA, 2'-F C and U) [21a-21(ML-94)], 0.5 x Kd of NX22284; to GGGGUUAUUAAGAGUCUGUAUAGCUUACCC (ssRNA, 2'-F C and U) [21a-21(ML-138)], 10000 x Kd of NX22284.

Take GAGGUUAUUACAGAGUCUGUAUAGCUGUACUCC (ssRNA, 2'-F C and U; 3'-3' dT cap) [NX22301]: the binding signal in data set [1] was 1 x Kd of NX22284.

B2: biased clone 4 (ssRNA)
RNA: GGGAGGACGAUGCGGGGAGGGUAUUACAGAGUAUGUAUAGCUGUACUCCCAGACGACUCGCCCGA
modifications: 2'-F C and U
On to B2, for which, in data set [2], the binding signal was 1.4 x Kd of 21a-21.

B3: biased clone 30 (ssRNA)
RNA: B2 RNA with G16U, G21U, A33C
modifications: 2'-F C and U
Consider B3, for which the binding signal in data set [2] was 2.4 x Kd of 21a-21.

B4: biased clone 34 (ssRNA)
RNA: B2 RNA with A18U, G21U, C27G, A33C, G43C, U47G
modifications: 2'-F C and U
For the molecule B4, in data set [2], the binding signal is 1.7 x Kd of 21a-21.

B5: biased clone 25 (ssRNA)
RNA: B2 RNA with A18G, G19C, G21U, A33C, C46G, U47C
modifications: 2'-F C and U
As to B5, the binding signal in data set [2] is 1 x Kd of 21a-21.

B6: biased clone 13 (ssRNA)
RNA: B1 RNA with G16U, G18U, C21A, U28A, A42U
modifications: 2'-F C and U
With B6, in data set [2], the binding signal was 0.2 x Kd of 21a-21.

B7: biased clone 35 (ssRNA)
RNA: B1 RNA with C21G, G27A, U28A, A42U, C43U
modifications: 2'-F C and U
For B7, in data set [2], the binding signal is 0.8 x Kd of 21a-21.

B8: biased clone 28 (ssRNA)
RNA: B2 RNA with G16A, A18G, G20A, G21A, U47C
modifications: 2'-F C and U
Consider B8, for which the binding signal in data set [2] is 1 x Kd of 21a-21.

B9: biased clone 18 (ssRNA)
RNA: B2 RNA with G17U, A18G, G20A, G21U, A30C, A33C, G40U, U47C
modifications: 2'-F C and U
B9: the binding signal in data set [2] is 1 x Kd of 21a-21.

B10: biased clone 14 (ssRNA)
RNA: B1 RNA with G16C, C21U, G27C, C43G
modifications: 2'-F C and U
In the case of B10, the binding signal in data set [2] was 0.4 x Kd of 21a-21.

B11: biased clone 21 (ssRNA)
RNA: B2 RNA with G16A, A18G, G20A, G21U, A33C, U47C
modifications: 2'-F C and U
B11: in data set [2], the binding signal was 0.7 x Kd of 21a-21.

B12: biased clone 11 (ssRNA)
RNA: B2 RNA with G17C, A18G, G20A, G21U, U25C, A45G, U47C, C48G
modifications: 2'-F C and U
On to B12, for which the binding signal in data set [2] is 0.4 x Kd of 21a-21.

B13: biased clone 36 (ssRNA)
RNA: B2 RNA with G21A, C27U, A33C, G43A, U47C
modifications: 2'-F C and U
Take B13: the binding signal in data set [2] is 1.9 x Kd of 21a-21.

B14: biased clone 26 (ssRNA)
RNA: B2 RNA with A18U, G21U, G29C, C41G, U47C
modifications: 2'-F C and U
Take B14: the binding signal in data set [2] is 3.1 x Kd of 21a-21.

B15: biased clone 15 (ssRNA)
RNA: B2 RNA with G17U, A18G, G20A, G21A, A28G, A33C, U42C
modifications: 2'-F C and U
Consider B15, for which the binding signal in data set [2] is 0.4 x Kd of 21a-21.

B16: biased clone 9 (ssRNA)
RNA: B2 RNA with G16U, G20A, A28G, U42C, U47C
modifications: 2'-F C and U
As to B16, the binding signal in data set [2] was 0.3 x Kd of 21a-21.

B17: biased clone 19 (ssRNA)
RNA: B2 RNA with G17C, G21U, A33C, C48G
modifications: 2'-F C and U
On to B17, for which, in data set [2], the binding signal is 1 x Kd of 21a-21.

B18: biased clone 10 (ssRNA)
RNA: B2 RNA with A18G, G19C, G20A, G21U, A26U, A33C, C46G, U47C
modifications: 2'-F C and U
Consider B18, for which the binding signal in data set [2] was 0.3 x Kd of 21a-21.

B19: biased clone 22 (ssRNA)
RNA: B2 RNA with G17U, A18G, G20A, G21U, A33C, U47C
modifications: 2'-F C and U
As for B19, the binding signal in data set [2] was 1.1 x Kd of 21a-21.

B20: biased clone 7 (ssRNA)
RNA: B2 RNA with G17A, A18G, G21U, C27U, A33C, U36C, G43A, U47C
modifications: 2'-F C and U
B20: the binding signal in data set [2] was 0.3 x Kd of 21a-21.

B21: biased clone 29 (ssRNA)
RNA: B2 RNA with G20U, G21U, A30C, A33C, G40U, C46G, U47C
modifications: 2'-F C and U
In the case of B21, the binding signal in data set [2] was 1 x Kd of 21a-21.

B22: 8.28 (ssRNA)
RNA: GGGAGGACGAUGCGGAUGAGACCUAAUCAUCGAUCCGCUAUCUAAAACCUCACCCCAGACGACUCGCCCGA
modifications: 2'-F C and U; 2'-OH A and G
As for B22, in data set [3], the binding result is on record as “no binding”. As to GGAGGUUAUUACAAGUUGUAUAGCUGUACUCC (ssRNA, 2'-F C and U) [21a-21(ML-122)], in data set [1], the binding signal is 1000 x Kd of NX22284. For GGAGGUUAUUACAGAGUCUGUAUAGC (ssRNA, 2'-F C and U) [21a-21(ML-97)], in data set [1], the binding signal was 1000 x Kd of NX22284.

B23: biased clone 2 (ssRNA)
RNA: GGGAGGACGAUGCGGAGGCGUUAUUAGAGAGUCUGUAUAGCUCUAGCCCCAGACGACUCGCCGA
modifications: 2'-F C and U
With B23, in data set [2], the binding signal was 0.6 x Kd of 21a-21.

B24: 8.23 (ssRNA)
RNA: GGGAGGACGAUGCGGAGACAUCUUUGUCUCGAUUAGUCAUGUUCCUUACCUGCCCCAGACGACUCGCCCGA
modifications: 2'-F C and U; 2'-OH A and G
As to B24, the binding result in data set [3] is on record as “no binding”. Take GGAGGUUAUUACAGAGUCUGUAUAGCGUACUCC (ssRNA, 2'-F C and U) [21a-21(ML-114)]: the binding signal in data set [1] is 1000 x Kd of NX22284. The same measure, in the same setting: with GGAGGUUAUUACAGAGUCUGUAUAGCUGUCUCC (ssRNA, 2'-F C and U) [21a-21(ML-115)] the figure was 1000 x Kd of NX22284.

B25: 8.2 (ssRNA)
RNA: GGGAGGACGAUGCGGAAGUAACGUUUAAGUAAAAUUCGUUCUCUCGGUAUUUGGCCAGACGACUCGCCCGA
modifications: 2'-F C and U; 2'-OH A and G
For B25, the binding result in data set [3] was “binds”.

B26: 8.3 (ssRNA)
RNA: B25 RNA with U26G, U48C
modifications: 2'-F C and U; 2'-OH A and G
With B26, the binding result in data set [3] is “binds”. GGAGGUUAUUAGAGUCUAUAGCCUCC (ssRNA, 2'-F C and U) [21a-21(ML-102)]: the binding signal in data set [1] was 1000 x Kd of NX22284.

As to GGAGGUUAUUACAGAGUCUGUAUAGCUACUCC (ssRNA, 2'-F C and U) [21a-21(ML-116)], the binding signal in data set [1] is 1000 x Kd of NX22284. Still for that read-out and setting: to GGGGUUAUUACAGAGUCUGUAUAGCUGUACCC (ssRNA, 2'-F C and U) [21a-21(ML-130)] belongs 2 x Kd of NX22284; to AGGUUAUUACAGAGUCUGUAUAGCUGUACUCC (ssRNA, 2'-F C and U; 3'-3' dT cap) [NX22302], 100 x Kd of NX22284. As to GGAGGUUAUUACAGAGUCUGUAUAGCUGUA (ssRNA, 2'-F C and U) [21a-21(ML-96)], the binding signal in data set [1] is 1000 x Kd of NX22284.

GGAGGUUAUUACGAGUCUGUAUAGCGUACUCC (ssRNA, 2'-F C and U) [21a-21(ML-132)]: in data set [1], the binding signal was 1000 x Kd of NX22284. The same measure, in the same setting: with GGAGGUUAUUACAGAUCUGUAUAGCUGUACUCC (ssRNA, 2'-F C and U) [21a-21(ML-120)] the figure was 1000 x Kd of NX22284. Still for that read-out and setting: to GGAGGUUAUUACAGAGUUGUAUAGCUGUACUCC (ssRNA, 2'-F C and U) [21a-21(ML-128)] belongs 1000 x Kd of NX22284. With GGAGGUUAUUAGAGUCUAUAGCUGUACUCC (ssRNA, 2'-F C and U) [21a-21(ML-101)], the binding signal in data set [1] was 1000 x Kd of NX22284. On the same count and under the same terms, with GGAGGUUAUUACAGAGUCUGUAUAGCUGUAC (ssRNA, 2'-F C and U) [21a-21(ML-105)] the figure was 1000 x Kd of NX22284.

B27: biased clone 20 (ssRNA)
RNA: GGGAGGACGAUGCGGGGUAGAUAUCACUGAGUCUGUAUAGCAGUGUCCCCAGACGACUCGCCCGA
modifications: 2'-F C and U
B27: in data set [2], the binding signal was 5.7 x Kd of 21a-21. Take GGGGUUAUUCAGAGUCUGUAUAGCUGACCC (ssRNA, 2'-F C and U) [21a-21(ML-136)]: the binding signal in data set [1] is 10000 x Kd of NX22284. On the same count and under the same terms, with GGAGGUUAUACAGAGUCUGUAUAGCUGUACUCC (ssRNA, 2'-F C and U) [21a-21(ML-118)] the figure was 1000 x Kd of NX22284; with GGAGAUAUUACAGAGUCUGUAUAGCUGUACUCC (ssRNA, 2'-F C and U) [21a-21(ML-134)], 10 x Kd of NX22284.

B28: 8.35 (ssRNA)
RNA: GGGAGGACGAUGCGGAUCCUAUCCUCUGAAUAUCAUUAAAUCAUCUUCUCCGCCCCAGACGACUCGCCCGA
modifications: 2'-F C and U; 2'-OH A and G
Consider B28, for which the binding result in data set [3] is recorded as “no binding”.

Values taken from patent US20040258656, “High affinity TGFbeta nucleic acid ligands and inhibitors” (published 2004).
